Values of other authors as cited in PMC7809386.
Where two headings read alike, the source gives them in different places.

How the values were obtained:
SecA (Escherichia coli) [1] = target: SecA (Escherichia coli) (UniProt P10408)
SecA (Escherichia coli) [2] = target: SecA (Escherichia coli) (UniProt P10408); remark: listed apart in the source

## SecA (from UniProt P10408)
SecA (Escherichia coli) [1]
  Kd: 0.74 nM
SecA (Escherichia coli) [2]
  Kd: 100 nM
